Test results from US8618251.

Legend:
[1] = target: soluble hFcγRIIB (human) (UniProt P31994); test: SPR Biacore T100, steady state, antibody immobilised
[2] = target: soluble hFcγRIIIA FV (human) (UniProt P08637); test: as above
[3] = target: soluble hFcγRIIA^131H (human) (UniProt P12318); test: as above
[4] = target: soluble hFcγRIIIA FF (human) (UniProt P08637); test: as above
[5] = target: C1q (Calbiochem) (UniProt P02745); test: as above
[6] = target: soluble hFcγRIIA^131R (human) (UniProt P12318); test: as above
soluble hFcγRIIA^131R (human), sequence (P12318 34-217 H167R): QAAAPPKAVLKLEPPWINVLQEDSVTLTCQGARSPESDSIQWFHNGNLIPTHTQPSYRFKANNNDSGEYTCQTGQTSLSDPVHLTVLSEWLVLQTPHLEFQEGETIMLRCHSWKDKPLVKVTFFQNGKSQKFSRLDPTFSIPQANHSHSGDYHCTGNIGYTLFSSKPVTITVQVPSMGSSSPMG

[7] = target: soluble hFcγ-receptor RIa (human) (UniProt P12314); test: as above
soluble hFcγ-receptor RIa (human), sequence (P12314 16-288 limits assumed): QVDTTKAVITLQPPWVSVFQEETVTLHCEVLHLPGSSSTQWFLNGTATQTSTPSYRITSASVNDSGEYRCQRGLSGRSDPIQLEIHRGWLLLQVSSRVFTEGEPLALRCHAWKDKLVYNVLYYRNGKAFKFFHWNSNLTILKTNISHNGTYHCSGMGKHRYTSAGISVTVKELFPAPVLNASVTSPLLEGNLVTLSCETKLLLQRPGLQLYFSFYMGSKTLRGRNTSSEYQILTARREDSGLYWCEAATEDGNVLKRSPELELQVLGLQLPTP

[8] = target: soluble hFcγRIIB (human) (UniProt P31994); test: SPR Biacore T100; reference of the fold not given
[9] = target: soluble hFcγRIIIA FV (human) (UniProt P08637); test: SPR Biacore T100; reference of the fold not given
[10] = target: soluble hFcγRIIA^131H (human) (UniProt P12318); test: SPR Biacore T100; reference of the fold not given
[11] = target: soluble hFcγRIIA^131R (human) (UniProt P12318); test: SPR Biacore T100; reference of the fold not given
[12] = target: soluble hFcγRIIIA FF (human) (UniProt P08637); test: SPR Biacore T100; reference of the fold not given
[13] = target: C1q (Calbiochem) (UniProt P02745); test: SPR Biacore T100; reference of the fold not given
[14] = target: soluble hFcγ-receptor RIa (human) (UniProt P12314); test: SPR Biacore T100; reference of the fold not given
[15] = target: soluble hFcγRIIA^131H (human) (UniProt P12318); test: SPR (Biacore T100), steady-state affinity; antibody immobilised on CM5 chip, soluble receptor injected
[16] = target: soluble hFcγRIIA^131R (human) (UniProt P12318); test: as above
[17] = target: soluble hFcγRIIIA FV (human) (UniProt P08637); test: SPR (Biacore T100), steady-state affinity; antibody immobilised on CM5 chip, soluble receptor injected; column head hRIIIA158F, whose values for IEAL, ALEV and LLLFET are those of the hRIIIA FV column of Table 1
[18] = target: C1q (Calbiochem) (UniProt P02745); test: SPR (Biacore T100), steady-state affinity; antibody immobilised on CM5 chip, C1q injected

C1q (Calbiochem), sequence (P02745 23-245 limits assumed, chain 1 of 3): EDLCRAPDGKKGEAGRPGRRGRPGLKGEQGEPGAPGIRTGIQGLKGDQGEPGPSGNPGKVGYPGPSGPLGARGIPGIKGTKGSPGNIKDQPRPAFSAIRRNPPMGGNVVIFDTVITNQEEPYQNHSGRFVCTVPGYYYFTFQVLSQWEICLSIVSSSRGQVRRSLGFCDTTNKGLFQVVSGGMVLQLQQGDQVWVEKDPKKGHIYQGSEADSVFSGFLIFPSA
C1q (Calbiochem), sequence (P02746 28-253 limits assumed, chain 2 of 3, further chain): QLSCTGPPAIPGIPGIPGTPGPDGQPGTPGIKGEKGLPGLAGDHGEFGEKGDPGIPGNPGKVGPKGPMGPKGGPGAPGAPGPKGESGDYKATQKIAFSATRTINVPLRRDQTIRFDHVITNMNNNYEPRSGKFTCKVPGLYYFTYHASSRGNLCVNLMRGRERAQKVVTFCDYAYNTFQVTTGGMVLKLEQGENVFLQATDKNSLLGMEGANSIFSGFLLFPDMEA
C1q (Calbiochem), sequence (P02747 29-245 limits assumed, chain 3 of 3, further chain): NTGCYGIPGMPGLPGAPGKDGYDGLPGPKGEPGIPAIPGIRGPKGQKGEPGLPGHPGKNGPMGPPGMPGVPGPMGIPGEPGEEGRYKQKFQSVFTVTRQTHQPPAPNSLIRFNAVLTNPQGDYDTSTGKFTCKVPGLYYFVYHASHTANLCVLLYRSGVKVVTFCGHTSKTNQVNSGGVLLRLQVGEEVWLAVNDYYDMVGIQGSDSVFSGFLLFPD
soluble hFcγRIIIA FV (human), sequence (P08637 17-208 F176V): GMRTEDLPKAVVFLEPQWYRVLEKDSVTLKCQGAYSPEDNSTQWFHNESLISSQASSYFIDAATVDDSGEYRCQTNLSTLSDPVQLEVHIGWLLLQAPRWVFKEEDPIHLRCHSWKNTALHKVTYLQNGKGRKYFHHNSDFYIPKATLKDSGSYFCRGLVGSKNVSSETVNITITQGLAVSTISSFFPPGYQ
soluble hFcγRIIB (human), sequence (P31994 43-217 limits assumed): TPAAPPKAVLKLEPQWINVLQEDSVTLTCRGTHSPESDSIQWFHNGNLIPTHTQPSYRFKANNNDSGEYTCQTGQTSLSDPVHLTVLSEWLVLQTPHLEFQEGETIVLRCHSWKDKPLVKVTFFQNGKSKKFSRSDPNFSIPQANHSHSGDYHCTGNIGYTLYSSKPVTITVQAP
soluble hFcγRIIA^131H (human), sequence (P12318 34-217): as the sequence (P12318 34-217 H167R) above, with R134H counted along it

Substance	Kd [1]	Kd [2]	Kd [3]	Kd [4]	Kd [5]	Kd [6]	Kd [7]	Fold change in affinity [8]	Fold change in affinity [9]	Fold change in affinity [10]	Fold change in affinity [11]	Fold change in affinity [12]	Fold change in affinity [13]	Fold change in affinity [14]	Kd [15]	Kd [16]	Kd [17]	Kd [18]
4-4-20 hIgG1 Fc mutant I332T (antibody)	8.54 µM	2.61 µM	0.903 µM	10.6 µM	0.0355 µM	–	–	–	–	–	–	–	–	–	–	–	–	–
4-4-20 hIgG1 Fc mutant V188E-G236A-P244H-H268Y (antibody)	10.5 µM	5.5 µM	–	14 µM	0.405 µM	0.394 µM	0.0174 µM	–	–	–	–	–	–	–	–	–	–	–
4-4-20 hIgG1 Fc mutant S298G-T299A (antibody)	5.68 µM	–	7 µM	–	–	1.69 µM	–	1.7 fold	–	0.8 fold	3 fold	–	–	–	–	–	–	–
4-4-20 hIgG1 Fc mutant G236A-K246E-F372Y-T394A-Q419L (antibody)	9.8 µM	6.76 µM	0.467 µM	11.9 µM	0.703 µM	0.498 µM	0.0361 µM	2.5 fold	0.6 fold	9.2 fold	9.6 fold	1.1 fold	0.4 fold	0.7 fold	–	–	–	–
4-4-20 hIgG1 Fc mutant P247L-M252L-V266L-Y278F-V302E-S354T (antibody)	0.785 µM	3.07 µM	–	–	–	0.523 µM	–	–	–	–	–	–	–	–	–	–	–	–
4-4-20 hIgG1 Fc mutant G236A-F243I-I332T (antibody)	16.7 µM	7.04 µM	0.482 µM	11.2 µM	0.0257 µM	0.944 µM	0.0423 µM	1.5 fold	0.5 fold	8.9 fold	5 fold	1.2 fold	0.8 fold	0.4 fold	–	–	–	–
4-4-20 hIgG1 Fc mutant V211A-F243L-K326E-D399V (antibody)	6.12 µM	3.43 µM	7.16 µM	–	–	0.778 µM	–	4 fold	–	0.6 fold	6.1 fold	–	–	–	–	–	–	–
4-4-20 hIgG1 with unmodified human IgG1 Fc (antibody)	–	–	–	–	–	–	–	–	–	–	–	–	–	–	4.3 µM	4.8 µM	3.5 µM	0.29 µM
4-4-20 hIgG1 Fc mutant T394P (antibody)	10.8 µM	–	5.94 µM	–	–	8.7 µM	–	1.1 fold	–	0.5 fold	1 fold	–	–	–	–	–	–	–
4-4-20 hIgG1 Fc mutant P171S-S191C-G236A-K274M-T394P (antibody)	8.09 µM	5.57 µM	0.513 µM	11 µM	0.559 µM	0.473 µM	0.0118 µM	–	0.3 fold	8.4 fold	10.1 fold	1.2 fold	0.5 fold	1.1 fold	–	–	–	–
4-4-20 hIgG1 Fc mutant K205E-V211A-G237V-F243L-V273I-T366S-M428L (antibody)	13.4 µM	8.99 µM	10 µM	11.6 µM	0.292 µM	0.851 µM	0.0436 µM	1.8 fold	0.4 fold	0.4 fold	5.6 fold	1.2 fold	–	0.4 fold	–	–	–	–

Now from value to substance:

Kd [1]	Kd [2]	Kd [3]	Kd [4]	Kd [5]	Kd [6]	Kd [7]	Fold change in affinity [8]	Fold change in affinity [9]	Fold change in affinity [10]	Fold change in affinity [11]	Fold change in affinity [12]	Fold change in affinity [13]	Fold change in affinity [14]	Kd [15]	Kd [16]	Kd [17]	Kd [18]	Substance
11.8 µM	7.05 µM	5.6 µM	9.93 µM	0.0955 µM	7.72 µM	–	0.9 fold	0.4 fold	0.6 fold	0.9 fold	1.4 fold	–	–	–	–	–	–	4-4-20 hIgG1 Fc mutant F243I (antibody)
6.04 µM	–	0.766 µM	–	–	4.88 µM	–	–	–	4 fold	1.8 fold	–	–	–	–	–	–	–	4-4-20 hIgG1 Fc mutant P396L (antibody)
–	–	12.9 µM	–	–	10.6 µM	–	–	–	0.3 fold	0.6 fold	–	–	–	–	–	–	–	4-4-20 hIgG1 Fc mutant S298G (antibody)
–	0.307 µM	1.46 µM	1.69 µM	0.248 µM	1.48 µM	–	4.3 fold	5.3 fold	2.3 fold	4.9 fold	7.4 fold	0.6 fold	–	–	–	–	–	4-4-20 hIgG1 Fc mutant S239D (antibody)
–	0.567 µM	1.34 µM	7.25 µM	0.0633 µM	0.838 µM	–	3.5 fold	2.9 fold	2.5 fold	8.7 fold	–	2.2 fold	–	–	–	–	–	4-4-20 hIgG1 Fc mutant K326E (antibody)
14 µM	9.32 µM	1.06 µM	15.8 µM	0.392 µM	0.479 µM	0.0666 µM	1.7 fold	0.5 fold	4.1 fold	9.9 fold	0.8 fold	–	0.4 fold	–	–	–	–	4-4-20 hIgG1 Fc mutant L163P-S183G-K222E-G236A-N276D-S298G-D312G (antibody)
3.21 µM	0.489 µM	4.79 µM	6.9 µM	0.137 µM	0.372 µM	–	7.6 fold	7.2 fold	0.9 fold	12.8 fold	2.2 fold	2.1 fold	–	–	–	–	–	4-4-20 hIgG1 Fc mutant V215I-K326E-T359A-P396L (antibody)
2.63 µM	0.528 µM	3.18 µM	–	0.129 µM	0.548 µM	–	9.3 fold	6.7 fold	1.4 fold	8.7 fold	–	3.8 fold	–	–	–	–	–	4-4-20 hIgG1 Fc mutant K326E-A339T (antibody)
5.34 µM	–	0.463 µM	–	–	0.312 µM	–	–	–	7.4 fold	18.5 fold	–	–	–	–	–	–	–	4-4-20 hIgG1 Fc mutant G236A-F243I-S298G-T299A-I332T (antibody)
